Data set [1] concerns MS2 coat protein. Nature of the data set: apparent KD of MS2 coat protein, switch ON state; designed switch direction (-1 OFF switch, 1 ON switch): -1; higher = weaker reporter binding. Particulars: FMN input: 0 or 200 uM; Eterna round: R93 (includes R88 designs). The essentials:
(§1)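 The buffer was 100 mM Tris-HCl pH 7.5 with 80 mM KCl and 4 mM MgCl2, used without or with constant ligand. In it, RNA switches transcribed on-chip from Illumina sequencing clusters were titrated with SNAP-549-labelled MS2 coat protein in twofold steps from 0.7 or 1.5 nM to 3 µM. Apparent KD for each design is the median of its normalised cluster binding-curve fits.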

In data set [2] the test system is MS2 coat protein. In words: apparent KD of MS2 coat protein, switch OFF state (with FMN for OFF switches, without FMN for ON switches); designed switch direction (-1 OFF switch, 1 ON switch): -1; higher = weaker reporter binding. To be noted: FMN input: 0 or 200 uM; Eterna round: R93 (includes R88 designs). The essentials: as §1

“AACAGUACAGGAUAUACAUGAGGAUCACCCAUGUCACAACAAAGCAGCGUAACACAAAGUAGAAGGGUAAUGGA [Ruby 16]”: the “apparent KD of MS2 coat protein” value in the data set on MS2 coat protein [1] stood at 48.6 nM; in the data set with MS2 coat protein [2], 39.5 nM.
Taken in the same sequence, the figures for “AACAGUACAGGAUAUACAUGAGGAUCACCCAUGUGAAAAUAAAGUGGCGUACCACAAAGUAGAAGGGUACUGGA [Moding Maslow revisited (73) 4]” were 28.8 nM and 101 nM.
For “AACAGUACAGGAUAUACAUGAGGAUCACCCAUGUGAAAGAAAAGUGGCGUACCACAAAGUAGAAGGGUACUGAA [Mat - Exclusion 3 - JL mod - D28]”, in that order: 30.2 nM and 134 nM.
For “AACAGUACAGGAUAUACAUGAGGAUCACCCAUGUGAAGAUUAAGAAGAAACCCACAAAGUAGAAGGGUACUGGA [Ruby 92]”, in that order: 29 nM and 47.4 nM.
Regarding “AACAGUACAGGAUAUACAUGAGGAUCACCCAUGUGAGAAUUAAGUGGAAGACCACAAAGUAGAAGGGUACUGAA [Mat - Exclusion 3 - JL mod - D10]”, the “apparent KD of MS2 coat protein” value was determined as 28.4 nM with MS2 coat protein [1] and 189 nM in the data set on MS2 coat protein [2].
For “AACAGUACAGGAUAUACAUGAGGAUCACCCAUGUGAUAUAAAUAAAACAAAAAUAAAAGUAGAAGGGUACUGGA [Ruby 44]”, in that order: 25.7 nM and 70.8 nM.
For “AACAGUACAGGAUAUACAUGAGGAUCACCCAUGUGAUUAUCAAGUGCCGUAGCACGAAGUAGAAGGGUACUGGA”, in that order: 60.3 nM and 243 nM.
Take “AACAGUAGAGGAUAUACAUGAGGAUCACCCAUGUGAGAAACCACUGGCGUACCAGAAAGUAGAAGGCUACUGGA [Moding Maslow Revisited (73) 30]”: the “apparent KD of MS2 coat protein” value with MS2 coat protein [1] was determined as 103 nM; in the data set on MS2 coat protein [2], 34.6 nM.
“AACAUACAUGAGGAUCACCCAUGUCAGGAUAUGCCGGGUUAGAACCAAAAAAAAAAACGUAGAAGGGACAAAAA [Bilbo Confounded 4 - Jieux - Exclusion 1]”: the “apparent KD of MS2 coat protein” value in the data set on MS2 coat protein [1] stood at 234 nM; in the data set with MS2 coat protein [2], 140 nM.
For “AACAUACAUGAGGAUCACCCAUGUCAGGAUAUGCCGGGUUAGAGCCAACUAAAAAAACGUAGAAGGGACAAAAA [Bilbo Confounded 6 - Jieux - Exclusion 1]”, in that order: 62.7 nM and 55.7 nM.
Taken in the same sequence, the figures for “AACAUGUCAGGAUAUAUAAGAAAAGAAAAGAAAGAAAAGAAAUAGAAGGGACAUGAGGAUCACCCAUGUAAGAA [EteRNA is fun!]” were 45.2 nM and 29 nM.
“AACAUGUCAGGAUAUGUAAAAAAAAAAAAAAAAAAAAAAAUACAGAAGGGACAUGAGGAUCACCCAUGUCAGGG [EX4 391: Minimal 3]”: the figures for the “apparent KD of MS2 coat protein” value with MS2 coat protein [1] and in the data set on MS2 coat protein [2] were 69.8 nM and 55.3 nM, respectively.
Take “AACAUGUUAGGAUAUGAAAGAAAAGAAAAGAAAGAAAAGAAUCAGAAGGAACAUGAGGAUCACCCAUGUAAGAA [EteRNA is fun!]”: the “apparent KD of MS2 coat protein” value was 25.6 nM in the data set with MS2 coat protein [1] and 19.8 nM with MS2 coat protein [2].
Taken in the same sequence, the figures for “AACCAACAUGAGGAUCACCCAUGUCAGGAUAUGCAUACAACAUACAACAUACAUCAAAGCAGAAGGGACAAAAA [Amethyst 83]” were 26.1 nM and 24.1 nM.
Taken in the same sequence, the figures for “AACGAAUGAGGAUAUACAAACAGAAAAAUCAGACAUAACAGACAUGAGGAUCACCCAUGUAGAAGGCAUAAACA [JR_Exc002_Sub902]” were 25.5 nM and 18.7 nM.
For “AACGAGUCAGGAUAUGCUAUAAAUUAAUAAAUAAAAUUAUAGCAGAAGGGACAUGAGGAUCACCCAUGUAAAUA [JR_Exc004_Sub201]”, in that order: 45.7 nM and 42.2 nM.
Regarding “AACGCACAUGAGGAUCACCCAUGUCAGGAUAUCGUGGCGGGAAAAACCGGGAAACGCACGAGAAGGGACAAAAA [EX1 Malc#18 Mod 14 - Jieux - Exclusion 1]”, the “apparent KD of MS2 coat protein” value in the data set on MS2 coat protein [1] was 47.6 nM; in the data set with MS2 coat protein [2], 42.2 nM.
For “AACUAGCUAGGAUAUACAUGAGGAUCACCCAUGUAAAAAAAAAAAAAAAAAUUUUUAUGUAGAAGGAGCUAGUA [Design 1 - Brourd - Exclusion 3]”, in that order: 27.9 nM and 35.4 nM.
For “AACUAGCUAGGAUAUACAUGAGGAUCACCCAUGUAAAAAAAAAAAAAAAGAUUUAUAUGUAGAAGGAGCUAGUA [Design 3 - Brourd - Exclusion 3]”, in that order: 31.6 nM and 61.8 nM.
Taken in the same sequence, the figures for “AACUCGUCAGGAUAUGCGCACAGAUAAUACGCUACACAAAAGCAGAAGGGACAUGAGGAUCACCCAUGUAAAUA [JR_Exc004_Sub503]” were 35.1 nM and 22.1 nM.
Turning to “AACUGACAUGAGGAUCACCCAUGUCAGGAUAUGACAUCGAGAAAUAAAUAAAUCGUUGUCAGAAGGGACAUGAA [Design 79: Sub-opt TB]”, the “apparent KD of MS2 coat protein” value in the data set on MS2 coat protein [1] was 17.5 nM; with MS2 coat protein [2] it was 13.4 nM.
As for “AACUGACAUGAGGAUCACCCAUGUCAGGAUAUGACUUCAAAAAAAAAAAAAAAUGAUGUCAGAAGGGACAUGAA [Design 62: Sub-opt L]”, the “apparent KD of MS2 coat protein” value stood at 24.4 nM with MS2 coat protein [1] and 19.3 nM in the data set on MS2 coat protein [2].
For “AACUGACAUGAGGAUCACCCAUGUCAGGAUAUGCUUCAUAAAAACAAACAAAAAUGAUGCAGAAGGGACAUGGG [Design 31 :P Sub-opt 7]”, in that order: 17.1 nM and 39.5 nM.
For “AACUGUACAGGAUAUACAUGAGGAUCACCCAUGUGAGAAUUAAGUGGCGUACCACAAAGUAGAAGGGUACAGGA [Mat - Exclusion 3 - JL mod - D15]”, in that order: 36.4 nM and 192 nM.
Taken in the same sequence, the figures for “AAGAAACAAGGAUAUACAAGGAAGAAAGAAAAGAAAAGAAAACAUGAGGAUCACCCAUGUAGAAGGUGUUAGAA [EteRNA is fun!]” were 40.3 nM and 27.9 nM.
As to “AAGAAACAAGGAUAUACAUGAGGAUCACCCAUGUAAAAGAAAGAAAGGGAAGAGAAAAGUAGAAGGUGUAAGAA [Publius Rubrius Barbarus]”, the results for the “apparent KD of MS2 coat protein” value in the data set with MS2 coat protein [1] and in the data set with MS2 coat protein [2] were 26.1 nM and 46 nM, respectively.
For “AAGAAACAUGAGGAUCACCCAUGUAAGGAUAUGUAAAAGAAAAGAAAAGAAAGAAGAAACAGAAGGUACAAAGG [Wahankh Intef II]”, in that order: 46 nM and 33.7 nM.
Taken in the same sequence, the figures for “AAGAAACAUGAGGAUCACCCAUGUCAGGAUAUAGAAAAGAAAAGAAAAGAAAGAAGAACUAGAAGGGACAAAGG [Menkare]” were 34.1 nM and 34 nM.
For “AAGAAACAUGAGGAUCACCCAUGUCAGGAUAUCGAAAAGAAAAGAAAAGAAAGAAGAACGAGAAGGGACAAAGG [Qakare Ibi]”, in that order: 59.6 nM and 67.8 nM.
In the case of “AAGAAACAUGAGGAUCACCCAUGUCAGGAUAUGCAAGACUGACGAAAGUCAGUCAAAAGCAGAAGGGACUAGAA [7-pair stack]”, the entries for the “apparent KD of MS2 coat protein” value in the data set with MS2 coat protein [1] and with MS2 coat protein [2] were 28 nM and 51.5 nM, respectively.
Taken in the same sequence, the figures for “AAGAAACAUGAGGAUCACCCAUGUCAGGAUAUUGAAGAAAGAAAGAAAGAAAGAAGAACAAGAAGGGACAAAGG [Gaius Vitrasius Pollio]” were 44.3 nM and 33.3 nM.
For “AAGAAACAUGAGGAUCACCCAUGUGAGGAUAUACAAGAAAGAAAGAAAGAAAGAAGAAGUAGAAGGCACAAAGG [Gaius Valerius]”, in that order: 31.4 nM and 14.4 nM.
Taken in the same sequence, the figures for “AAGAAACAUGAGGAUCACCCAUGUGAGGAUAUCAAAAAGAAAAGAAAAGAAAGAAGAAUGAGAAGGCACAAAGG [Mery—]” were 30.5 nM and 32.5 nM.
Consider “AAGAAACAUGAGGAUCACCCAUGUGAGGAUAUGCAAAAGAAAAGAAAAGAAAGAAGAAGCAGAAGGCACAAAGG [Neferkahor]”, for which the “apparent KD of MS2 coat protein” value is 49.1 nM in the data set with MS2 coat protein [1] and 138 nM in the data set on MS2 coat protein [2].
Taken in the same sequence, the figures for “AAGAAAGGAGGAUAUACAUGAGGAUCACCCAUGUAAAAGAAAGAGGGAAAAGAGAAAAGUAGAAGGCCUAAGAA [Ptolemy IX Soter II]” were 30.8 nM and 39.1 nM.
Taken in the same sequence, the figures for “AAGAACACAGGAUAUACAUGAGGAUCACCCAUGUAAAAGAAAGAAAGGGAAAAGAAAAGUAGAAGGGUGAAGAA [Aakheperre Pasebakhenniut I]” were 40 nM and 72.6 nM.
Regarding “AAGAACAUAGGAUAUACAAAAUAAAAGAAAAGAAAGAAAGAACAUGAGGAUCACCCAUGUAGAAGGAUGAAGAA [Khakaure Senusret III]”, the “apparent KD of MS2 coat protein” value in the data set on MS2 coat protein [1] came to 39 nM; with MS2 coat protein [2] it was 24.4 nM.
Taken in the same sequence, the figures for “AAGAACCGAGGAUAUACAUGAAAGAAAGAAAAGAAAAGAAAACAUGAGGAUCACCCAUGUAGAAGGCGGAAGAA [EteRNA is fun!]” were 27.4 nM and 35.3 nM.
For “AAGAACCUAGGAUAUACAUGAAAGAAAGAAAAGAAAAGAAAACAUGAGGAUCACCCAUGUAGAAGGAGGUAGAA [EteRNA is fun!]”, in that order: 26.7 nM and 50.5 nM.
Taken in the same sequence, the figures for “AAGAACCUAGGAUAUACAUGAGGAUCACCCAUGUAAAAGAAAGAAAAGGGAAAGAAAAGUAGAAGGAGGAAGAA [Menmire-setpenre Amenmesse]” were 18.4 nM and 22.2 nM.

Source of the values: the supplement of paper PMC9170038.
